Experimental data reported in patent US20260015399A1 (Boehringer Ingelheim, published 2026).
*1 amine or outer side, *2 acyl side, *3 side chain or, on linkers, in order; H or OH if unused. Side-chain parts run from the residue outwards. The star is where a group is joined. C18 diacid = O=C(O)CCCCCCCCCCCCCCCCC(=O)*; γGlu = O=C(O)[C@H](CCC(=O)[*:2])N[*:1]; Isovaleryl = CC(C)CC(=O)*; Ahx = NCCCCCC(=O)O

T1: human NPY2 receptor (human, UniProt P49146 1-381)
T1 construct: whole, on cells; also called hNPY2-R; hNPY2R
T1 sequence (looked up): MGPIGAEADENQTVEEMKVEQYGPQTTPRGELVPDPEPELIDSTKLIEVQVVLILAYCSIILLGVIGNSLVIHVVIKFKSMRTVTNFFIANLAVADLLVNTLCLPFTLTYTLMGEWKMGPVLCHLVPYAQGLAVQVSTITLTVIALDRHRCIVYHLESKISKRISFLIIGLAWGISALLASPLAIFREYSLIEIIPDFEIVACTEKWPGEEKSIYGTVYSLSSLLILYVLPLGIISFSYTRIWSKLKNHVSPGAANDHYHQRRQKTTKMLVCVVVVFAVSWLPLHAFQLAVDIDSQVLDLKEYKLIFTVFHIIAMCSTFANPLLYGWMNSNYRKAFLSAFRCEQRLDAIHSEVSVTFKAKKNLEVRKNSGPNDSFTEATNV


Each binder was assayed against T1, human NPY2 receptor (assay: RLB: displacement of 125I-PYY(1-36) from hNPY2R membranes).

Ki [nM]	Binder
2.75	Isovaleryl-APEK([Ahx-γGlu-C18 diacid])PEADAEPEELQRYYISLRHYYNWLTRQRY-NH2 (SMILES CC[C@H](C)[C@H](NC(=O)[C@H](Cc1ccc(O)cc1)NC(=O)[C@H](Cc1ccc(O)cc1)NC(=O)[C@H](CCCNC(=N)N)NC(=O)[C@H](CCC(N)=O)NC(=O)[C@H](CC(C)C)NC(=O)[C@H](CCC(=O)O)NC(=O)[C@H](CCC(=O)O)NC(=O)[C@@H]1CCCN1C(=O)[C@H](CCC(=O)O)NC(=O)[C@H](C)NC(=O)[C@H](CC(=O)O)NC(=O)[C@H](C)NC(=O)[C@H](CCC(=O)O)NC(=O)[C@@H]1CCCN1C(=O)[C@H](CCCCNC(=O)CCCCCNC(=O)CC[C@H](NC(=O)CCCCCCCCCCCCCCCCC(=O)O)C(=O)O)NC(=O)[C@H](CCC(=O)O)NC(=O)[C@@H]1CCCN1C(=O)[C@H](C)NC(=O)CC(C)C)C(=O)N[C@@H](CO)C(=O)N[C@@H](CC(C)C)C(=O)N[C@@H](CCCNC(=N)N)C(=O)N[C@@H](Cc1c[nH]cn1)C(=O)N[C@@H](Cc1ccc(O)cc1)C(=O)N[C@@H](Cc1ccc(O)cc1)C(=O)N[C@@H](CC(N)=O)C(=O)N[C@@H](Cc1c[nH]c2ccccc12)C(=O)N[C@@H](CC(C)C)C(=O)N[C@H](C(=O)N[C@@H](CCCNC(=N)N)C(=O)N[C@@H](CCC(N)=O)C(=O)N[C@@H](CCCNC(=N)N)C(=O)N[C@@H](Cc1ccc(O)cc1)C(N)=O)[C@@H](C)O) [Compound 159]
2.05	Isovaleryl-APAK([Ahx-γGlu-C18 diacid])PEEDASPEELQRYYVELRHYYNWLTRQRY-NH2 (SMILES CC(C)CC(=O)N[C@@H](C)C(=O)N1CCC[C@H]1C(=O)N[C@@H](C)C(=O)N[C@@H](CCCCNC(=O)CCCCCNC(=O)CC[C@H](NC(=O)CCCCCCCCCCCCCCCCC(=O)O)C(=O)O)C(=O)N1CCC[C@H]1C(=O)N[C@@H](CCC(=O)O)C(=O)N[C@@H](CCC(=O)O)C(=O)N[C@@H](CC(=O)O)C(=O)N[C@@H](C)C(=O)N[C@@H](CO)C(=O)N1CCC[C@H]1C(=O)N[C@@H](CCC(=O)O)C(=O)N[C@@H](CCC(=O)O)C(=O)N[C@@H](CC(C)C)C(=O)N[C@@H](CCC(N)=O)C(=O)N[C@@H](CCCNC(=N)N)C(=O)N[C@@H](Cc1ccc(O)cc1)C(=O)N[C@@H](Cc1ccc(O)cc1)C(=O)N[C@H](C(=O)N[C@@H](CCC(=O)O)C(=O)N[C@@H](CC(C)C)C(=O)N[C@@H](CCCNC(=N)N)C(=O)N[C@@H](Cc1c[nH]cn1)C(=O)N[C@@H](Cc1ccc(O)cc1)C(=O)N[C@@H](Cc1ccc(O)cc1)C(=O)N[C@@H](CC(N)=O)C(=O)N[C@@H](Cc1c[nH]c2ccccc12)C(=O)N[C@@H](CC(C)C)C(=O)N[C@H](C(=O)N[C@@H](CCCNC(=N)N)C(=O)N[C@@H](CCC(N)=O)C(=O)N[C@@H](CCCNC(=N)N)C(=O)N[C@@H](Cc1ccc(O)cc1)C(N)=O)[C@@H](C)O)C(C)C) [Compound 166]
4	Isovaleryl-APAK([Ahx-γGlu-C18 diacid])PEEAAEPEELQRYYVALRHYYNWLTRQRY-NH2 (SMILES CC(C)CC(=O)N[C@@H](C)C(=O)N1CCC[C@H]1C(=O)N[C@@H](C)C(=O)N[C@@H](CCCCNC(=O)CCCCCNC(=O)CC[C@H](NC(=O)CCCCCCCCCCCCCCCCC(=O)O)C(=O)O)C(=O)N1CCC[C@H]1C(=O)N[C@@H](CCC(=O)O)C(=O)N[C@@H](CCC(=O)O)C(=O)N[C@@H](C)C(=O)N[C@@H](C)C(=O)N[C@@H](CCC(=O)O)C(=O)N1CCC[C@H]1C(=O)N[C@@H](CCC(=O)O)C(=O)N[C@@H](CCC(=O)O)C(=O)N[C@@H](CC(C)C)C(=O)N[C@@H](CCC(N)=O)C(=O)N[C@@H](CCCNC(=N)N)C(=O)N[C@@H](Cc1ccc(O)cc1)C(=O)N[C@@H](Cc1ccc(O)cc1)C(=O)N[C@H](C(=O)N[C@@H](C)C(=O)N[C@@H](CC(C)C)C(=O)N[C@@H](CCCNC(=N)N)C(=O)N[C@@H](Cc1c[nH]cn1)C(=O)N[C@@H](Cc1ccc(O)cc1)C(=O)N[C@@H](Cc1ccc(O)cc1)C(=O)N[C@@H](CC(N)=O)C(=O)N[C@@H](Cc1c[nH]c2ccccc12)C(=O)N[C@@H](CC(C)C)C(=O)N[C@H](C(=O)N[C@@H](CCCNC(=N)N)C(=O)N[C@@H](CCC(N)=O)C(=O)N[C@@H](CCCNC(=N)N)C(=O)N[C@@H](Cc1ccc(O)cc1)C(N)=O)[C@@H](C)O)C(C)C) [Compound 161]
2.8	Isovaleryl-APEK([Ahx-γGlu-C18 diacid])PEEDATPEEIQRYYQSLRHYYNWLTRQRY-NH2 (SMILES CC[C@H](C)[C@H](NC(=O)[C@H](CCC(=O)O)NC(=O)[C@H](CCC(=O)O)NC(=O)[C@@H]1CCCN1C(=O)[C@@H](NC(=O)[C@H](C)NC(=O)[C@H](CC(=O)O)NC(=O)[C@H](CCC(=O)O)NC(=O)[C@H](CCC(=O)O)NC(=O)[C@@H]1CCCN1C(=O)[C@H](CCCCNC(=O)CCCCCNC(=O)CC[C@H](NC(=O)CCCCCCCCCCCCCCCCC(=O)O)C(=O)O)NC(=O)[C@H](CCC(=O)O)NC(=O)[C@@H]1CCCN1C(=O)[C@H](C)NC(=O)CC(C)C)[C@@H](C)O)C(=O)N[C@@H](CCC(N)=O)C(=O)N[C@@H](CCCNC(=N)N)C(=O)N[C@@H](Cc1ccc(O)cc1)C(=O)N[C@@H](Cc1ccc(O)cc1)C(=O)N[C@@H](CCC(N)=O)C(=O)N[C@@H](CO)C(=O)N[C@@H](CC(C)C)C(=O)N[C@@H](CCCNC(=N)N)C(=O)N[C@@H](Cc1c[nH]cn1)C(=O)N[C@@H](Cc1ccc(O)cc1)C(=O)N[C@@H](Cc1ccc(O)cc1)C(=O)N[C@@H](CC(N)=O)C(=O)N[C@@H](Cc1c[nH]c2ccccc12)C(=O)N[C@@H](CC(C)C)C(=O)N[C@H](C(=O)N[C@@H](CCCNC(=N)N)C(=O)N[C@@H](CCC(N)=O)C(=O)N[C@@H](CCCNC(=N)N)C(=O)N[C@@H](Cc1ccc(O)cc1)C(N)=O)[C@@H](C)O) [Compound 164]
14.9	Isovaleryl-APEK([Ahx-γGlu-C18 diacid])PEEDATPEEEQRYYVSLRHYYNWLTRQRY-NH2 (SMILES CC(C)CC(=O)N[C@@H](C)C(=O)N1CCC[C@H]1C(=O)N[C@@H](CCC(=O)O)C(=O)N[C@@H](CCCCNC(=O)CCCCCNC(=O)CC[C@H](NC(=O)CCCCCCCCCCCCCCCCC(=O)O)C(=O)O)C(=O)N1CCC[C@H]1C(=O)N[C@@H](CCC(=O)O)C(=O)N[C@@H](CCC(=O)O)C(=O)N[C@@H](CC(=O)O)C(=O)N[C@@H](C)C(=O)N[C@H](C(=O)N1CCC[C@H]1C(=O)N[C@@H](CCC(=O)O)C(=O)N[C@@H](CCC(=O)O)C(=O)N[C@@H](CCC(=O)O)C(=O)N[C@@H](CCC(N)=O)C(=O)N[C@@H](CCCNC(=N)N)C(=O)N[C@@H](Cc1ccc(O)cc1)C(=O)N[C@@H](Cc1ccc(O)cc1)C(=O)N[C@H](C(=O)N[C@@H](CO)C(=O)N[C@@H](CC(C)C)C(=O)N[C@@H](CCCNC(=N)N)C(=O)N[C@@H](Cc1c[nH]cn1)C(=O)N[C@@H](Cc1ccc(O)cc1)C(=O)N[C@@H](Cc1ccc(O)cc1)C(=O)N[C@@H](CC(N)=O)C(=O)N[C@@H](Cc1c[nH]c2ccccc12)C(=O)N[C@@H](CC(C)C)C(=O)N[C@H](C(=O)N[C@@H](CCCNC(=N)N)C(=O)N[C@@H](CCC(N)=O)C(=O)N[C@@H](CCCNC(=N)N)C(=O)N[C@@H](Cc1ccc(O)cc1)C(N)=O)[C@@H](C)O)C(C)C)[C@@H](C)O) [Compound 162]
4.58	Isovaleryl-APAK([Ahx-γGlu-C18 diacid])PEEAAEPEEIQRYYVALRHYYNWLTRQRY-NH2 (SMILES CC[C@H](C)[C@H](NC(=O)[C@H](CCC(=O)O)NC(=O)[C@H](CCC(=O)O)NC(=O)[C@@H]1CCCN1C(=O)[C@H](CCC(=O)O)NC(=O)[C@H](C)NC(=O)[C@H](C)NC(=O)[C@H](CCC(=O)O)NC(=O)[C@H](CCC(=O)O)NC(=O)[C@@H]1CCCN1C(=O)[C@H](CCCCNC(=O)CCCCCNC(=O)CC[C@H](NC(=O)CCCCCCCCCCCCCCCCC(=O)O)C(=O)O)NC(=O)[C@H](C)NC(=O)[C@@H]1CCCN1C(=O)[C@H](C)NC(=O)CC(C)C)C(=O)N[C@@H](CCC(N)=O)C(=O)N[C@@H](CCCNC(=N)N)C(=O)N[C@@H](Cc1ccc(O)cc1)C(=O)N[C@@H](Cc1ccc(O)cc1)C(=O)N[C@H](C(=O)N[C@@H](C)C(=O)N[C@@H](CC(C)C)C(=O)N[C@@H](CCCNC(=N)N)C(=O)N[C@@H](Cc1c[nH]cn1)C(=O)N[C@@H](Cc1ccc(O)cc1)C(=O)N[C@@H](Cc1ccc(O)cc1)C(=O)N[C@@H](CC(N)=O)C(=O)N[C@@H](Cc1c[nH]c2ccccc12)C(=O)N[C@@H](CC(C)C)C(=O)N[C@H](C(=O)N[C@@H](CCCNC(=N)N)C(=O)N[C@@H](CCC(N)=O)C(=O)N[C@@H](CCCNC(=N)N)C(=O)N[C@@H](Cc1ccc(O)cc1)C(N)=O)[C@@H](C)O)C(C)C) [Compound 167]
